# Laboratory results reported in the supplement of paper PMC10567573.
# B1: C8orf76 (parent)
# chain: KLAEAYLNLGPALSAALASSQKQH
# B2: BTBD10 (parent)
# chain: FVYENAKEGARNIRTSERVTLIVD
# Variants of: B1
# Experiment: protein stability index of a GFP-peptide fusion (GPS, HEK-293T) (PSI 1-6); higher = more stable
# Conditions: c terminus: a fixed tail appended
# 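Note: lentivirally expressed fusions sorted by FACS into six bins by GFP to DsRed ratio, PSI derived from sequencing read proportions per bin multiplied by bin number.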
row,Variant,protein stability index
1,KLAEAYLNLGPALSAALASSQKIH,2.73
2,KLAEAYLNLGPALSAALASSQKHH,2.74
3,KLAEAYLNLGPALSAALASSQKFH,2.92
4,KLAEAYLNLGPALSAALASSQKMH,2.85
5,KLAEAYLNLGPALSAALASSQKWH,2.43
6,KLAEAYLNLGPALSAALASSQKCH,2.22
7,KLAEAYLNLGPALSAALASSQKDH,1.97
8,KLAEAYLNLGPALSAALASSQKSH,2.91
9,KLAEAYLNLGPALSAALASSQKRH,2.04
10,KLAEAYLNLGPALSAALASSQKAH,3.15
11,KLAEAYLNLGPALSAALASSQKLH,2.86
12,KLAEAYLNLGPALSAALASSQKNH,1.99
13,KLAEAYLNLGPALSAALASSQKKH,2.07
14,KLAEAYLNLGPALSAALASSQKPH,2.57
15,KLAEAYLNLGPALSAALASSQKYH,2.51
16,KLAEAYLNLGPALSAALASSQKEH,3.74
17,KLAEAYLNLGPALSAALASSQKVH,2.9
18,KLAEAYLNLGPALSAALASSQKTH,2.83
19,KLAEAYLNLGPALSAALASSQKQT,2.79
20,KLAEAYLNLGPALSAALASSQKQF,3.48
21,KLAEAYLNLGPALSAALASSQKQL,2.44
22,KLAEAYLNLGPALSAALASSQKQD,1.67
23,KLAEAYLNLGPALSAALASSQKQI,2.4
24,KLAEAYLNLGPALSAALASSQKQM,3.02
25,KLAEAYLNLGPALSAALASSQKQR,3

row,Variant,protein stability index
1,KLAEAYLNLGPALSAALASSQKQQ,3.32
2,KLAEAYLNLGPALSAALASSQKQS,2.83
3,KLAEAYLNLGPALSAALASSQKQV,3.61
4,KLAEAYLNLGPALSAALASSQKQY,2.56
5,KLAEAYLNLGPALSAALASSQKQP,2.62
6,KLAEAYLNLGPALSAALASSQKQE,1.47
7,KLAEAYLNLGPALSAALASSQKQW,1.9
8,KLAEAYLNLGPALSAALASSQKQC,3.67
9,KLAEAYLNLGPALSAALASSQKQN,2.29
10,KLAEAYLNLGPALSAALASSQKQK,1.76
11,KLAEAYLNLGPALSAALASSQKQA,4.29
12,KLAEAYLNLGPALSAALASSQRQH,4.21
13,KLAEAYLNLGPALSAALASSQTQH,4.43
14,KLAEAYLNLGPALSAALASSQYQH,3.64
15,KLAEAYLNLGPALSAALASSQMQH,2.41
16,KLAEAYLNLGPALSAALASSQFQH,2.69
17,KLAEAYLNLGPALSAALASSQWQH,4.77
18,KLAEAYLNLGPALSAALASSQNQH,1.83
19,KLAEAYLNLGPALSAALASSQGQH,3.43
20,KLAEAYLNLGPALSAALASSQHQH,2.52
21,KLAEAYLNLGPALSAALASSQPQH,4.17
22,KLAEAYLNLGPALSAALASSQLQH,3.34
23,KLAEAYLNLGPALSAALASSQSQH,3.07
24,KLAEAYLNLGPALSAALASSQIQH,3.1
25,KLAEAYLNLGPALSAALASSQQQH,2.76

# Variants of: B2
# Experiment: as above
# Conditions: c terminus: a fixed tail appended
row,Variant,protein stability index
1,FVAENAKEGARNIRTSERVTLIVD,2.08
2,FVKENAKEGARNIRTSERVTLIVD,2.08
3,FVRENAKEGARNIRTSERVTLIVD,2.73
4,FVTENAKEGARNIRTSERVTLIVD,2.22
5,FVEENAKEGARNIRTSERVTLIVD,3.75
6,FVDENAKEGARNIRTSERVTLIVD,3.22
7,FVVENAKEGARNIRTSERVTLIVD,2.22
8,FVQENAKEGARNIRTSERVTLIVD,2.62
9,FVIENAKEGARNIRTSERVTLIVD,2.26
10,FVSENAKEGARNIRTSERVTLIVD,1.96
11,FVWENAKEGARNIRTSERVTLIVD,2.19
12,FVMENAKEGARNIRTSERVTLIVD,2.2
13,FVHENAKEGARNIRTSERVTLIVD,2.11
14,FVGENAKEGARNIRTSERVTLIVD,2.35
15,FVLENAKEGARNIRTSERVTLIVD,1.92
16,FVCENAKEGARNIRTSERVTLIVD,2.17
17,FVPENAKEGARNIRTSERVTLIVD,1.72
18,FVFENAKEGARNIRTSERVTLIVD,2.12
19,FVNENAKEGARNIRTSERVTLIVD,2.48
20,FVYPNAKEGARNIRTSERVTLIVD,1.69
21,FVYSNAKEGARNIRTSERVTLIVD,1.66
22,FVYMNAKEGARNIRTSERVTLIVD,1.91

row,Variant,protein stability index
1,FVYQNAKEGARNIRTSERVTLIVD,1.94
2,FVYNNAKEGARNIRTSERVTLIVD,1.57
3,FVYHNAKEGARNIRTSERVTLIVD,2.16
4,FVYCNAKEGARNIRTSERVTLIVD,2.56
5,FVYYNAKEGARNIRTSERVTLIVD,1.92
6,FVYANAKEGARNIRTSERVTLIVD,1.82
7,FVYINAKEGARNIRTSERVTLIVD,2.35
8,FVYTNAKEGARNIRTSERVTLIVD,2.18
9,FVYFNAKEGARNIRTSERVTLIVD,1.65
10,FVYGNAKEGARNIRTSERVTLIVD,1.75
11,FVYVNAKEGARNIRTSERVTLIVD,2.83
12,FVYRNAKEGARNIRTSERVTLIVD,1.91
13,FVYDNAKEGARNIRTSERVTLIVD,2.08
14,FVYWNAKEGARNIRTSERVTLIVD,1.83
15,FVYKNAKEGARNIRTSERVTLIVD,2.25
16,FVYLNAKEGARNIRTSERVTLIVD,1.48
17,RVYENAKEGARNIRTSERVTLIVD,3.3
18,PVYENAKEGARNIRTSERVTLIVD,3.46
19,SVYENAKEGARNIRTSERVTLIVD,3.23
20,LVYENAKEGARNIRTSERVTLIVD,3.05
21,WVYENAKEGARNIRTSERVTLIVD,2.55
22,MVYENAKEGARNIRTSERVTLIVD,3.78
